± gives the standard deviation.

The nature of this data set: protein stability index of a GFP-peptide fusion (GPS, HEK-293T) (PSI 1-6); higher = more stable.
The mark [1] stands for this setting: treatment: DMSO, c terminus: a fixed tail appended.
[2] abbreviates: treatment: MLN4924 1 uM, 8 h, c terminus: a fixed tail appended.
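Also: 24-mer peptide tiles fused after GFP, lentivirally expressed, FACS-sorted into six equal bins by GFP/DsRed ratio, decoded by Illumina sequencing, PSI is the read-weighted mean bin number.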

On to QEANARERNRMHGLNDALDNLRKV [NEUROD6], for which the protein stability index was found to be 4.55 ± 0.14 under setting [1] and 4.56 ± 0.23 under setting [2].
For the sequence QECPPDGRSFREEQCVSFNSHVYN [ADAMTSL2], the protein stability index is, setting by setting: under setting [1], 4.08 ± 0.11; under setting [2], 3.91 ± 0.2.
QEIIKTTEQLIEAVNNGDFEAYAK [CAMK2B] gave a protein stability index under setting [1] of 4.27 ± 0.17 and a protein stability index under setting [2] of 4.26 ± 0.15.
For QENEEKEQVANKGEPLALPLDAGE [BEX1] the same measures were 5.59 ± 0.27 and 5.48 ± 0.56.
As to QERPRPEPGRLGSSSPASVTTEQL [PXN], the protein stability index was found to be 5.29 ± 0.3 under setting [1] and 5.12 ± 0.39 under setting [2].
For QESDQTEEHESGIEQFSESHAIHV [IQUB] the same measures were 5.34 ± 0.18 and 5.45 ± 0.22.
The sequence QETRGELQCRSPPRLHGAKAILDA [TBC1D10A] returned a protein stability index under setting [1] of 4.55 ± 0.27 and a protein stability index under setting [2] of 4.62 ± 0.12.
For QETVLVEERRVVHASGDASYSAGD [EPB41L3] the same measures were 5.28 ± 0.2 and 5.38 ± 0.24.
With QEYQLPYQRVLPLPIFTPAKMGAT [TCAP], the protein stability index by setting is: under setting [1], 3.01 ± 0.35; under setting [2], 3.09 ± 0.18.
For QFRVVRCWKMLSPGFDSSVYSDLC [ADAMTSL2] the same measures were 2.5 ± 1 and 2.32 ± 0.45.
For QGEYSRKLEERFMTLAANHELMLR [CCDC89], in that order: 3.15 ± 0.18 and 3.18 ± 0.25.
As to QHRKINPKNREYDRFYVINYLVRL [ZNF277], the protein stability index is, setting by setting: under setting [1], 3.16 ± 1.1; under setting [2], 2.29 ± 0.64.
For QKPRGLEGGVLRGSKLEKGHLRGP [ZSWIM9] the same measures were 3.98 ± 0.63 and 3.82 ± 0.54.
For QLELVILQSEPHRAGVQWKFAGSF [KCNK9], in that order: 2.7 ± 0.54 and 2.59 ± 0.44.
For QLIDNILEESDIDRDGTINLSEFQ [CIB1], in that order: 3.69 ± 0.35 and 3.89 ± 0.26.
As for QLKACTNFDDILNVCDDYDVTCNE [KCNG1], the protein stability index runs as follows: under setting [1], 4.42 ± 0.16; under setting [2], 4.63 ± 0.085.
For QLYMEQFTKANFWYQPSFHGVDLS [CARM1], the protein stability index by setting is: under setting [1], 2.42 ± 0.71; under setting [2], 2.48 ± 0.31.
For QNDNAPEILYPALPTDGSTGVELA [PCDHGA10] the same measures were 4.84 ± 0.39 and 5.2 ± 0.18.
For QPASELLQDVRVNQSRCEMKTFVS [TRIM15] the same measures were 2.98 ± 0.48 and 3.25 ± 0.41.
Turning to QQHSDKTSLQGLTGTPLVAGSPIR [ISL2], the protein stability index runs as follows: under setting [1], 4.2 ± 0.21; under setting [2], 4.39 ± 0.13.
For QQRPHPRSHSREPRAERKCPRIAP [ELOA2], in that order: 4.49 ± 0.46 and 4.53 ± 0.071.
For QRQAIKGAFYRRAQRLRPQDEPRQ [KCNG1], in that order: 3.87 ± 0.24 and 4.16 ± 0.22.
For QRVLFSGSSDHSVIMWDIGGRKGT [WDFY2], in that order: 2.8 ± 0.43 and 2.94 ± 0.14.
Turning to QSEHTMVLRCQLSAEEVRFPVSVT [C2CD2L], the protein stability index runs as follows: under setting [1], 2.64 ± 0.33; under setting [2], 2.49 ± 0.42.
QSEPSEQDGVLDLSTKKSPCAGST [LCOR]: the protein stability index runs as follows: under setting [1], 5.39 ± 0.22; under setting [2], 5.46 ± 0.29.
For QSLNDRLASYLDRVRSLETENRRL [KRT18], in that order: 3.65 ± 0.044 and 3.67 ± 0.23.
Take QSLVSILRTTVHHAFPVVTENRGN [CLCN6]: the protein stability index runs as follows: under setting [1], 2.69 ± 0.57; under setting [2], 2.46 ± 0.059.
For QTVTVEEAAGGESALAPSVFKQAK [MAP2] the same measures were 5.21 ± 0.32 and 5.38 ± 0.45.
Consider QVALLRLTWSELFVLNAAQCSMPL [NR2F2], for which the protein stability index is, setting by setting: under setting [1], 2.97 ± 0.44; under setting [2], 3 ± 0.41.
Turning to QVHAWQLYYSKKLLDSWFTSTQEK [JAGN1], the protein stability index reads like this: under setting [1], 2.23 ± 0.29; under setting [2], 2.29 ± 0.29.
As to QVNGHPDPFDEIILFSLPPALDWD [PTPN9], the protein stability index amounted to 2.27 ± 0.23 under setting [1] and 2.31 ± 0.4 under setting [2].
For QWTVGKLNCPFCGARLGGFNFVST [RNF180], in that order: 2.46 ± 0.39 and 2.65 ± 0.54.
Regarding QYIISDLASARIIEQDAVVPSEWL [GMCL1], the protein stability index runs as follows: under setting [1], 2.76 ± 0.24; under setting [2], 2.76 ± 0.25.
For QYQLLRCNVDLLKIIQLGLTFMNE [CNOT7] the same measures were 2.73 ± 1.8 and 2.86 ± 0.42.
For RADLVFIIDSSRSVNTHDYAKVKE [MATN2], in that order: 2.51 ± 0.32 and 2.72 ± 0.34.
Regarding RALSDTTEELTVIKSSLKDEYQYS [SLC2A12], the protein stability index by setting is: under setting [1], 4.54 ± 0.22; under setting [2], 4.68 ± 0.08.
RASRLQAPVLVAAPHSTFFDPIVL [LPCAT4] registered a protein stability index under setting [1] of 2.6 ± 0.31 and a protein stability index under setting [2] of 2.71 ± 0.2.
Consider RCRQSLEDSESLRIKEVEHMTRHL [LRRC45], for which the protein stability index under setting [1] was 3.42 ± 0.14 and the protein stability index under setting [2] stood at 3.46 ± 0.17.
On to RDNGHSNRDEHSSRGYRNHRSSRE [RBMY1A1], for which the protein stability index reads like this: under setting [1], 5.1 ± 0.074; under setting [2], 5.24 ± 0.088.
Consider REIMEKFGKQPVSLPARRLKLRGR [CPXM2], for which the protein stability index reads like this: under setting [1], 3.64 ± 0.16; under setting [2], 3.65 ± 0.088.
For RELLDRAMREAIQSYPSQDKPLPP [SOAT2], in that order: 3.94 ± 0.12 and 3.95 ± 0.083.
In the case of REQKEKSPPDQPAVPHPPPSTPIK [ADD1], the protein stability index is 5.39 ± 0.12 under setting [1] and 5.53 ± 0.18 under setting [2].
For RFCLPHLVALAEQHAVQELTKAAT [RHOBTB1], in that order: 2.12 ± 0.18 and 2.08 ± 0.15.
For RGIDIIKWMERYLRDKTVMIIVAI [TRAF3IP2] the same measures were 2.25 ± 0.31 and 2.33 ± 0.42.
For RGLVGVGEASYSTIAPTLIADLFV [SPNS1] the same measures were 2.29 ± 0.62 and 2.13 ± 0.26.
Regarding RGPDNALLEATGGAAGRSHHLDED [KCTD10], the protein stability index by setting is: under setting [1], 5.54 ± 0.26; under setting [2], 5.42 ± 0.25.
Regarding RGRFTTYEIRVKTNLPIFKLKEST [SNX3], the protein stability index is, setting by setting: under setting [1], 2.54 ± 0.98; under setting [2], 2.47 ± 0.57.
With RGTHAVVGVATADAPLHSVGYTTL [SPSB1], the protein stability index runs as follows: under setting [1], 2.73 ± 0.26; under setting [2], 2.88 ± 0.14.
Regarding RGWLLTSGTDKVIKLWDMTPVVS [WDFY2], the protein stability index (treatment: DMSO, c terminus: native) turned out to be 2.01 ± 0.2 and the protein stability index (treatment: MLN4924 1 uM, 8 h, c terminus: native) was 2.26 ± 0.24.
For the sequence RHRIPEPEAAVLFRQMATALAHCH [TRIB3], the protein stability index under setting [1] amounted to 2.48 ± 0.084 and the protein stability index under setting [2] came to 2.29 ± 0.19.
For RKLSFSHSDHSSEMSLPEVQKDKY [SPATS1] the same measures were 4.85 ± 0.15 and 4.93 ± 0.2.
For RKPPVFDENEDVNFDHFEILRAIG [STK32A], in that order: 2.76 ± 0.36 and 2.86 ± 0.31.
RKQRRRERWLQKQGKYSGVGLLDH [RNF180]: the protein stability index under setting [1] was found to be 3.43 ± 0.26 and the protein stability index under setting [2] stood at 3.94 ± 0.33.
Regarding RKSSKLIMELTGGGQESSGLNLGK [MYOZ1], the protein stability index runs as follows: under setting [1], 3.72 ± 0.082; under setting [2], 3.98 ± 0.26.
For RLLGSVQQDLERSLQDASRGDPAH [PBXIP1] the same measures were 4.7 ± 0.2 and 4.56 ± 0.46.
With RLPRQNSDGGQKNKPREHIIDCGD [WSB1], the protein stability index is, setting by setting: under setting [1], 4.54 ± 0.39; under setting [2], 5.07 ± 0.095.
Regarding RLQQELEQQRCLLLARLRELEQQI [TRIM15], the protein stability index runs as follows: under setting [1], 3.68 ± 0.2; under setting [2], 3.69 ± 0.39.
For RLQVVKLLAKMFGAKDSELASQNK [PDS5B] the same measures were 2.11 ± 0.34 and 2.7 ± 0.075.
As for RMETPKSREITTLANNQCMATESV [EHMT1], the protein stability index runs as follows: under setting [1], 4.56 ± 0.22; under setting [2], 4.79 ± 0.08.
For RMLMKRLDVTVQSFGWSDRAKVKT [FAM98B], in that order: 2.48 ± 0.34 and 2.34 ± 0.34.
For RPIIASISSGVVSIWAQNQVENWS [RBBP5], in that order: 2.22 ± 0.34 and 2.26 ± 0.42.
Take RPSEAQSVILRRYFLELTQSFIIP [DENND6A]: the protein stability index was 2.91 ± 0.44 under setting [1] and 2.67 ± 0.45 under setting [2].
Regarding RQIQEEEDEKQRLQNEVRQLTEKL [SSNA1], the protein stability index under setting [1] came to 4.98 ± 0.19 and the protein stability index under setting [2] worked out at 5.04 ± 0.21.
For RQLALPATEQAATQESTFQELCEG [NOP53], in that order: 5.12 ± 0.16 and 5.22 ± 0.21.
The sequence RREVERKQKGSEENLDEAREQKEK [ADD1] displayed a protein stability index under setting [1] of 5.5 ± 0.29 and a protein stability index under setting [2] of 4.91 ± 0.87.
For RRTYLGGAAGRSQEPEVPCAAVLP [RSPH3] the same measures were 4.37 ± 0.092 and 4.37 ± 0.18.
For RSLNVASGSGKSGGYGFGRGRASG [KRT71], in that order: 4.35 ± 0.38 and 4.49 ± 0.27.
Turning to RSQQQEPLLCPSYQSYFKTIEELQ [KRT33B], the protein stability index stood at 3.21 ± 0.37 under setting [1] and 3.43 ± 0.18 under setting [2].
RSWFPSAPGSASSSKVSGVLKKLA [YJU2B]: the protein stability index under setting [1] was found to be 2.61 ± 0.27 and the protein stability index under setting [2] amounted to 2.5 ± 0.38.
For RTDLEMQIEGLNEELAYLKKNHEE [KRT15], in that order: 4.85 ± 0.3 and 4.77 ± 0.22.
For RTHGDMHSLVRSRHRIPEPEAAVL [TRIB3], in that order: 3.8 ± 0.11 and 3.91 ± 0.086.
For RTHTGEKPYKCTLCGENFSHRSNL [ZNF263] the same measures were 2.43 ± 0.27 and 2.79 ± 0.53.
